Reference: publication PMC3773880 (Biochimica et biophysica acta, 2013)

B1: PD_(RgpA), recombinant N-terminal prodomain of RgpA (domain or fragment)
chain: QQTELGRNPNVRLLESTQQSVTKVQFRMDNLKFTEVQTPKGMAQVPTYTEGVNLSEKGMPTLPILSRSLAVSDTREMKVEVVSSKFIEKKNVLIAPSKGMIMRNEDPKKIPYVYGKSYSQNKFFPGEIATLDDPFILRDVRGQVVNFAPLQYNPVTKTLRIYTEITVAVSETSEQGKNILNKKGTFAGFEDTYKRMFMNYEPGR
B2: PD_(RgpB), recombinant N-terminal prodomain of RgpB (domain or fragment)
chain: GPLGSQPAERGRNPQVRLLSAEQSMSKVQFRMDNLQFTGVQTSKGVAQVPTFTEGVNISEKGTPILPILSRSLAVSETRAMKVEVVSSKFIEKKDVLIAPSKGVISRAENPDQIPYVYGQSYNEDKFFPGEIATLSDPFILRDVRGQVVNFAPLQYNPVTKTLRIYTEIVVAVSETAEAGQNTISLVKNSTFTGFEDIYKSVFMNYEATR

Columns and labels:
[1] = target: T1, low molecular weight gingipain R (RgpB) (Porphyromonas gingivalis, UniProt P95493 230-664); assay: cell-based or functional assay
[2] = target: T1, low molecular weight gingipain R (RgpB); assay: enzyme inhibition kinetics
[3] = target: T1, low molecular weight gingipain R (RgpB); assay: enzyme inhibition kinetics; remark: listed apart in the source
gingipain K (Kgp) = gingipain K (Kgp) (Porphyromonas gingivalis); assay: enzyme inhibition kinetics
[4] = target: T1, low molecular weight gingipain R (RgpB); assay: SEC
[5] = target: T1, low molecular weight gingipain R (RgpB); assay: cell-based or functional assay; remark: listed apart in the source
[6] = target: membrane-type RgpB (mt-RgpB), glycosylated (Porphyromonas gingivalis, UniProt P95493 230-736, heavily glycosylated); assay: cell-based or functional assay

| Binder | IC50 of inhibition of amidolytic activity (L-BAPNA), 10 nM enzyme [1] | IC50 of inhibition of aminopeptidase activity (H-Arg-AMC), 10 nM enzyme [1] | IC50 of inhibition of proteolytic activity (Azocoll), 10 nM enzyme [1] | Ki [2] | koff [3] | kon [3] | Ki (gingipain K (Kgp)) | stoichiometry N [4] | IC50 of inhibition of Rgp activity (L-BAPNA): RgpB (purified non-glycosylated) [5] | IC50 of inhibition of Rgp activity (L-BAPNA): mt-RgpB (purified) [6] |
| --- | --- | --- | --- | --- | --- | --- | --- | --- | --- | --- |
| B1 | 15.7 nM | 6.9 nM | 7.3 nM | 2.1 nM | 1.3e-05 s⁻¹ | 6070 M⁻¹ s⁻¹ | > 5000 nM |  |  |  |
| B2 | 23.7 nM | 7.2 nM | 7.1 nM | 6.2 nM | 3.1e-05 s⁻¹ | 5020 M⁻¹ s⁻¹ | > 5000 nM | 1 | 15 nM | 188 nM |
